In PMC7948499, “The molecular basis of the nonprocessive elongation mechanism in levansucrases” (The Journal of Biological Chemistry, 2020):
Residue numbers refer to the chain shown, from its start. Names and notes keep the numbering of the source.

T1: SacB (Bacillus subtilis levansucrase, LS) (Bacillus subtilis, UniProt P05655, D86A/E342A)
T1 construct: sacB gene of strain 168 in pET22b, expressed in E. coli BL21(DE3); residues 32-471 modelled in crystal
T1 sequence (P05655 30-473 D86A/E342A): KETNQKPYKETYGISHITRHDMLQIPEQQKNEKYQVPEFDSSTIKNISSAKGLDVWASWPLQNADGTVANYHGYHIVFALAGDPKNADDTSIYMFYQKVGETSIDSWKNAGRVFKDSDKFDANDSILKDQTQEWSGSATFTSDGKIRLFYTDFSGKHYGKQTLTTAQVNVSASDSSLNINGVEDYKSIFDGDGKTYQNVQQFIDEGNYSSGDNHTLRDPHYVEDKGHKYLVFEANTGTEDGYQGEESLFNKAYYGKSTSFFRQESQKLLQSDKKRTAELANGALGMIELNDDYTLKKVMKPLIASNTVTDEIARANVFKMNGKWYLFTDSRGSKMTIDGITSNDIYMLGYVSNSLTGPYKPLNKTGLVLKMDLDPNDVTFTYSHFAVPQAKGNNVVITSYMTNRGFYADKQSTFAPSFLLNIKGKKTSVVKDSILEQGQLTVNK

B1: SacB (Bacillus subtilis levansucrase, LS) (Bacillus subtilis subsp. subtilis str. 168) (protein)
chain: T1 sequence (P05655 30-473 D86A/E342A) with A57D, A313E
notes: sacB gene of strain 168 in pET22b, expressed in E. coli BL21(DE3); residues 32-471 modelled in crystal
B2: SacB (Bacillus subtilis levansucrase, LS) (Bacillus subtilis subsp. subtilis str. 168; F182A) (protein)
chain: T1 sequence (P05655 30-473 D86A/E342A) with A57D, F153A, A313E
notes: as for B1
B3: SacB (Bacillus subtilis levansucrase, LS) (Bacillus subtilis subsp. subtilis str. 168; Y237A) (protein)
chain: T1 sequence (P05655 30-473 D86A/E342A) with A57D, Y208A, A313E
notes: as for B1
B4: SacB (Bacillus subtilis levansucrase, LS) (Bacillus subtilis subsp. subtilis str. 168; N242A) (protein)
chain: T1 sequence (P05655 30-473 D86A/E342A) with A57D, N213A, A313E
notes: as for B1
B5: SacB (Bacillus subtilis levansucrase, LS) (Bacillus subtilis subsp. subtilis str. 168; Y187A) (protein)
chain: T1 sequence (P05655 30-473 D86A/E342A) with A57D, Y158A, A313E
notes: as for B1
B6: SacB (Bacillus subtilis levansucrase, LS) (Bacillus subtilis subsp. subtilis str. 168; D117A) (protein)
chain: T1 sequence (P05655 30-473 D86A/E342A) with A57D, D88A, A313E
notes: as for B1
B7: SacB (Bacillus subtilis levansucrase, LS) (Bacillus subtilis subsp. subtilis str. 168; K363A) (protein)
chain: T1 sequence (P05655 30-473 D86A/E342A) with A57D, A313E, K334A
notes: as for B1
B8: SacB (Bacillus subtilis levansucrase, LS) (Bacillus subtilis subsp. subtilis str. 168; F182Y) (protein)
chain: T1 sequence (P05655 30-473 D86A/E342A) with A57D, F153Y, A313E
notes: as for B1
B9: SacB (Bacillus subtilis levansucrase, LS) (Bacillus subtilis subsp. subtilis str. 168; F182W) (protein)
chain: T1 sequence (P05655 30-473 D86A/E342A) with A57D, F153W, A313E
notes: as for B1

molecular target: T1, SacB (Bacillus subtilis levansucrase, LS); experiment: X-ray crystal structure, […] Å, cocrystallization; type: binding; settings: catalytically inactive mutant; pH 6.0, 18 °C; active site (OB1, six fructose units modelled as levanhexaose); second site OB2 about 20 Å away (levanhexaose in chain A, levanbiose in chain B)

| Molecule | X-ray crystal structure, 2.05 Å, cocrystallization |
| --- | --- |
| OC[C@H]1O[C@@](CO)(OC[C@H]2O[C@@](CO)(OC[C@H]3O[C@@](CO)(OC[C@H]4O[C@@](CO)(OC[C@H]5O[C@@](CO)(OC[C@H]6O[C@@](CO)(OC[C@H]7O[C@@](CO)(O[C@H]8O[C@H](CO)[C@@H](O)[C@H](O)[C@H]8O)[C@@H](O)[C@@H]7O)[C@@H](O)[C@@H]6O)[C@@H](O)[C@@H]5O)[C@@H](O)[C@@H]4O)[C@@H](O)[C@@H]3O)[C@@H](O)[C@@H]2O)[C@@H](O)[C@@H]1O [6,6,6,6,6,6-kestooctaose] | inactive double mutant of SacB (D86A/E342A) cocrystallized in the presence of a levan-type FOS |

substrate: OC[C@H]1O[C@@](CO)(O[C@H]2O[C@H](CO)[C@@H](O)[C@H](O)[C@H]2O)[C@@H](O)[C@@H]1O; experiment: initial rates, reducing sugar release by dinitrosalicylic acid; type: biochemical, Bacillus subtilis; settings: 50 mM acetate pH 6.0, 0-300 mM sucrose, 1 mM CaCl2 in enzyme buffer

| Molecule | Km | kcat |
| --- | --- | --- |
| B1 | 9 mM | 236.7 s⁻¹ |
| B2 | 14.5 mM |  |
| B3 | 10.6 (1.7) mM | 256.3 (9.3) s^-1 |
| B4 | 19.9 mM |  |

substrate: OC[C@H]1O[C@@](CO)(O[C@H]2O[C@H](CO)[C@@H](O)[C@H](O)[C@H]2O)[C@@H](O)[C@@H]1O; experiment: as above; type: biochemical, Bacillus subtilis; settings: 50 mM acetate pH 6.0, 0-300 mM sucrose, 1 mM CaCl2 in enzyme buffer; remark: another data set of the same source
Protocol: initial rates, reducing sugar release by dinitrosalicylic acid on SacB (Bacillus subtilis levansucrase, LS) | were expressed and purified, and their kinetic parameters were determined (Fig. 4B)

| Molecule | Km | kcat |
| --- | --- | --- |
| B5 | 8.4 (0.9) mM | 199.2 (4.4) s^-1 |
| B6 | 13.2 (1.7) mM | 171.2 (5.7) s^-1 |
| B7 | 10.5 (2.2) mM | 95.4 (2.2) s^-1 |
| B8 | 10.3 (0.7) mM | 162.2 (2.6) s^-1 |
| B9 | 10.5 (1.3) mM | 129.4 (3.6) s^-1 |
